For 13 molecules, Kd and koff results are on record in paper PMC5913336, “True equilibrium measurement of transcription factor-DNA binding affinities using automated polarization microscopy”.

In data set [1] the target is T1, Bicoid DBD-GST (Bcd) (UniProt P09081 83-170).
T1 sequence: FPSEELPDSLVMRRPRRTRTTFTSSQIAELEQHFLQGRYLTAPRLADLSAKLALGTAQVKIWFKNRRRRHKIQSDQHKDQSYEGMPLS
Briefly: competitive fluorescence anisotropy (HiP-FA); mean of replicates 4.834, 5.5235; HiP-FA: 33 mM phosphate pH 7.0, 90 mM NaCl, 0.01% Tween 20, 0.1 mM DTT, 0.5% agarose; conventional titration and EMSA: 20 mM Tris-acetate pH 7.0, 50 nM (sic) NaCl, 0.01% Tween-20, 0.1 mM DTT. The note with it: protein: recombinant; tags: N-terminal GST; blunt, G:G mismatch at position 6. Background: A gel shift assay detects complexes by their altered migration in electrophoresis.

The target of data set [2] is T1, Bicoid DBD-GST (Bcd). Put plainly: competitive fluorescence anisotropy (HiP-FA); mean of replicates 3.751, 3.7605; HiP-FA: 33 mM phosphate pH 7.0, 90 mM NaCl, 0.01% Tween 20, 0.1 mM DTT, 0.5% agarose; conventional titration and EMSA: 20 mM Tris-acetate pH 7.0, 50 nM (sic) NaCl, 0.01% Tween-20, 0.1 mM DTT. The settings on record: protein: recombinant; tags: N-terminal GST; blunt, G:G mismatch at position 6.

Data set [3] addresses T2, Bcd homeodomain (Drosophila melanogaster, UniProt P09081-2 77-166).
T2 sequence: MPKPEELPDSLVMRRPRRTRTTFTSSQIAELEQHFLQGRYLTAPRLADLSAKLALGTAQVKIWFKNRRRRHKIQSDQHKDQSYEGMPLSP
Put plainly: FP; binding buffer, no gel. The settings on record: tags: N-GST (pGEX-6P-1, kept); label: 5' Cy5 on strand 1.

Data set [4] has as its target T1, Bicoid DBD-GST (Bcd). Briefly: competitive fluorescence anisotropy (HiP-FA); mean of replicates 2.816, 2.505; HiP-FA: 33 mM phosphate pH 7.0, 90 mM NaCl, 0.01% Tween 20, 0.1 mM DTT, 0.5% agarose; conventional titration and EMSA: 20 mM Tris-acetate pH 7.0, 50 nM (sic) NaCl, 0.01% Tween-20, 0.1 mM DTT. The note with it: protein: recombinant; tags: N-terminal GST; blunt, G:G mismatch at position 6.

In data set [5] the target is T1, Bicoid DBD-GST (Bcd). Put plainly: competitive fluorescence anisotropy (HiP-FA); mean of replicates 3.961, 3.634; HiP-FA: 33 mM phosphate pH 7.0, 90 mM NaCl, 0.01% Tween 20, 0.1 mM DTT, 0.5% agarose; conventional titration and EMSA: 20 mM Tris-acetate pH 7.0, 50 nM (sic) NaCl, 0.01% Tween-20, 0.1 mM DTT. The settings on record: protein: recombinant; tags: N-terminal GST; blunt, G:G mismatch at position 6.

Data set [6] addresses T2, Bcd homeodomain. Briefly: EMSA; 20 mM Tris-acetate pH 7.0, 50 "nM" NaCl as printed (probably mM), 0.01% Tween 20, 0.1 mM DTT, 10% glycerol; room temperature; 4 nM probe. The note with it: tags: N-GST (pGEX-6P-1, kept); label: Cy3.
Data set [7] has as its target T1, Bicoid DBD-GST (Bcd). Briefly: competitive fluorescence anisotropy (HiP-FA); mean of replicates 6.544, 6.784; HiP-FA: 33 mM phosphate pH 7.0, 90 mM NaCl, 0.01% Tween 20, 0.1 mM DTT, 0.5% agarose; conventional titration and EMSA: 20 mM Tris-acetate pH 7.0, 50 nM (sic) NaCl, 0.01% Tween-20, 0.1 mM DTT. The settings on record: protein: recombinant; tags: N-terminal GST; blunt.

The target of data set [8] is T1, Bicoid DBD-GST (Bcd). Briefly: competitive fluorescence anisotropy (HiP-FA); mean of replicates 2.884, 2.6855; HiP-FA: 33 mM phosphate pH 7.0, 90 mM NaCl, 0.01% Tween 20, 0.1 mM DTT, 0.5% agarose; conventional titration and EMSA: 20 mM Tris-acetate pH 7.0, 50 nM (sic) NaCl, 0.01% Tween-20, 0.1 mM DTT. The settings on record: protein: recombinant; tags: N-terminal GST; blunt, G:G mismatch at position 6.

The target of data set [9] is T1, Bicoid DBD-GST (Bcd). Put plainly: competitive fluorescence anisotropy (HiP-FA); mean of replicates 4.889, 5.1445; HiP-FA: 33 mM phosphate pH 7.0, 90 mM NaCl, 0.01% Tween 20, 0.1 mM DTT, 0.5% agarose; conventional titration and EMSA: 20 mM Tris-acetate pH 7.0, 50 nM (sic) NaCl, 0.01% Tween-20, 0.1 mM DTT. The settings on record: protein: recombinant; tags: N-terminal GST; blunt, C:C mismatch at position 6 as printed.

The target of data set [10] is T1, Bicoid DBD-GST (Bcd). Put plainly: competitive fluorescence anisotropy (HiP-FA); mean of replicates 3.19, 4.8725; HiP-FA: 33 mM phosphate pH 7.0, 90 mM NaCl, 0.01% Tween 20, 0.1 mM DTT, 0.5% agarose; conventional titration and EMSA: 20 mM Tris-acetate pH 7.0, 50 nM (sic) NaCl, 0.01% Tween-20, 0.1 mM DTT. The note with it: protein: recombinant; tags: N-terminal GST; blunt, G:G mismatch at position 6.

Data set [11] addresses T1, Bicoid DBD-GST (Bcd). Briefly: competitive fluorescence anisotropy (HiP-FA); mean of replicates 6.092, 5.6175; HiP-FA: 33 mM phosphate pH 7.0, 90 mM NaCl, 0.01% Tween 20, 0.1 mM DTT, 0.5% agarose; conventional titration and EMSA: 20 mM Tris-acetate pH 7.0, 50 nM (sic) NaCl, 0.01% Tween-20, 0.1 mM DTT. The settings on record: protein: recombinant; tags: N-terminal GST; blunt.

For data set [12], the target named is T1, Bicoid DBD-GST (Bcd). Put plainly: competitive fluorescence anisotropy (HiP-FA); mean of replicates 5.027, 4.3975; HiP-FA: 33 mM phosphate pH 7.0, 90 mM NaCl, 0.01% Tween 20, 0.1 mM DTT, 0.5% agarose; conventional titration and EMSA: 20 mM Tris-acetate pH 7.0, 50 nM (sic) NaCl, 0.01% Tween-20, 0.1 mM DTT. The settings on record: protein: recombinant; tags: N-terminal GST; blunt, G:G mismatch at position 6.

The target of data set [13] is T1, Bicoid DBD-GST (Bcd). Put plainly: competitive fluorescence anisotropy (HiP-FA); mean of replicates 5.163, 4.995; HiP-FA: 33 mM phosphate pH 7.0, 90 mM NaCl, 0.01% Tween 20, 0.1 mM DTT, 0.5% agarose; conventional titration and EMSA: 20 mM Tris-acetate pH 7.0, 50 nM (sic) NaCl, 0.01% Tween-20, 0.1 mM DTT. The note with it: protein: recombinant; tags: N-terminal GST; blunt, G:G mismatch at position 6.

B1: Bcd competitor 30 (C10A) (dsDNA)
DNA 1: TCGACGGTAATCCATA
DNA 2: TATGGATTACGGTCGA
Regarding B1, in the data set with Bicoid DBD-GST (Bcd) [1], the dissociation constant (Kd) – broadly, the equilibrium constant for the complex coming apart – is 5.18 nM.

B2: Bcd competitor 3 (C1A) (dsDNA)
DNA 1: TCGAAGGTAATCCCTA
DNA 2: TAGGGATTACGTTCGA
In the case of B2, in the data set with Bicoid DBD-GST (Bcd) [2], the Kd was 3.76 nM.

B3: Bcd Cy5 reference (dsDNA)
DNA 1: TCGACGCTAAGCTGTA
DNA 2: TACAGCTTAGCGTCGA
B3: the koff (commonly the rate constant with which the complex falls apart) with Bcd homeodomain [3] was 0.41 s⁻¹.

B4: Bcd competitor 2 (C1T) (dsDNA)
DNA 1: TCGATGGTAATCCCTA
DNA 2: TAGGGATTACGATCGA
As to B4, in the data set with Bicoid DBD-GST (Bcd) [4], the Kd stood at 2.66 nM.

B5: Bcd competitor 31 (T11C) (dsDNA)
DNA 1: TCGACGGTAATCCCCA
DNA 2: TGGGGATTACGGTCGA
For B5, the Kd with Bicoid DBD-GST (Bcd) [5] came out at 3.8 nM.

B6: Bcd EMSA probe (dsDNA)
DNA 1: TCGACCGTAATCCCTA
DNA 2: TAGGGATTACGGTCGA
In the data set with Bcd homeodomain [6], B6 showed a Kd of 1.8 ± 0.2 nM.

B7: Bcd competitor 5 (G2T) (dsDNA)
DNA 1: TCGACTGTAATCCCTA
DNA 2: TAGGGATTACAGTCGA
Regarding B7, the Kd with Bicoid DBD-GST (Bcd) [7] is 6.66 nM.

B8: Bcd competitor 7 (G3C) (dsDNA)
DNA 1: TCGACGCTAATCCCTA
DNA 2: TAGGGATTAGGGTCGA
For B8, the Kd with Bicoid DBD-GST (Bcd) [8] turned out to be 2.79 nM.

B9: Bcd competitor 4 (G2C) (dsDNA)
DNA 1: TCGACCGTAATCCCTA
DNA 2: TAGGGATTACCGTCGA
As to B9, the Kd in the data set with Bicoid DBD-GST (Bcd) [9] is 5.02 nM.

B10: Bcd competitor 29 (C10T) (dsDNA)
DNA 1: TCGACGGTAATCCTTA
DNA 2: TAAGGATTACGGTCGA
With B10, the Kd with Bicoid DBD-GST (Bcd) [10] came out at 4.03 nM.

B11: Bcd competitor 6 (G2A) (dsDNA)
DNA 1: TCGACAGTAATCCCTA
DNA 2: TAGGGATTACTGTCGA
As to B11, in the data set with Bicoid DBD-GST (Bcd) [11], the Kd came to 5.86 nM.

B12: Bcd competitor 33 (T11A) (dsDNA)
DNA 1: TCGACGGTAATCCCAA
DNA 2: TTGGGATTACGGTCGA
Consider B12, for which the Kd in the data set with Bicoid DBD-GST (Bcd) [12] was determined as 4.71 nM.

B13: Bcd competitor 32 (T11G) (dsDNA)
DNA 1: TCGACGGTAATCCCGA
DNA 2: TCGGGATTACGGTCGA
On to B13, for which, in the data set with Bicoid DBD-GST (Bcd) [13], the Kd was determined as 5.08 nM.
